± gives the standard error. Variants at the floor of the assay were thinned out.
B1: glmS ribozyme (parent)
chain: AUAAAAGCGCCAGAACUACAGAAAUGUAGUUGACGAGGAGGAGGUUUAUCGAAUUUUCGGCGGAUGCCUCCAAA

Assays:
Conditions in all cases: with glucosamine-6-phosphate
[1] = variants of: B1; test: self-cleavage kobs at 160 uM GlcN6P; higher = faster cleavage; RNA array
How it was run: (§1)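 Weighted Michaelis–Menten fits across concentrations supplied kcat and KM, based on kobs from one- or two-exponential decay fits to normalised per-tile medians. The data came from barcoded ribozyme variants transcribed in situ by E. coli RNA polymerase on sequenced MiSeq chips and tracked at 37 °C by a hybridised Cy3 probe. Glucosamine-6-phosphate (40 μM to 10 mM) in HEPES/KCl/Mg(OAc)2 buffer was flowed in.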

[2] = variants of: B1; test: self-cleavage kobs at 640 uM GlcN6P; higher = faster cleavage; RNA array
How it was run: as §1

[3] = variants of: B1; test: self-cleavage kobs at 2500 uM GlcN6P; higher = faster cleavage; RNA array
How it was run: as §1

[4] = variants of: B1; test: self-cleavage kobs at 10000 uM GlcN6P; higher = faster cleavage; RNA array
How it was run: as §1

Variant	self-cleavage kobs at 160 uM GlcN6P [1] [s⁻¹]	self-cleavage kobs at 640 uM GlcN6P [2] [s⁻¹]	self-cleavage kobs at 2500 uM GlcN6P [3] [s⁻¹]	self-cleavage kobs at 10000 uM GlcN6P [4] [s⁻¹]
AUAAAAACGCCAGAACUACAGAAAUGUAGUUGACGAGGAGGACGUUUAUCGAAUUUUCGGCGGAUGCCUCCAAA	< 1e-05	< 1e-05	< 1e-05	< 1e-05
AUAAAUGCGCCAGAACUACAGAAAUGUAGUUGACGAGGAGGAGGAUUAUCGACUUUUCGGCGGAUGCCUCCAAA	< 1e-05	4.01e-05 ± 1.9e-05	4.74e-05 ± 2.2e-05	
AUAAAGGCUCCACAACUACAGAAAUGUAGUUGAAGAGGAGGAGGUUUAUCGAAUUUUCGGCGGAUGCCUCCAAA	< 1e-05	< 1e-05	< 1e-05	
AUAAAUGCGCUAGAACUACAGAAAUGUAGUUGACGAGGAGGAGGUUUAUCGAAUUUUCGGCGGAUGCCUCCAAA	< 1e-05			
AUAAAGGCACCAGAACUACAGAAAUGUAGUUGACGAGGAGGAGGUUUAUCGAAUUUUCGGCGGAUGCCUCCAAA	< 1e-05	< 1e-05	< 1e-05	< 1e-05
AUAAAAACGCCAGAUCUACAGAAAUGUAGUUGACGAGGAGGAGGUUUAUCGAAUUUUCGGCGGAUGCCUCCAAA	< 1e-05			
AUAAAUGCGCCAGAACUACAGAAAUGUAGUUGACGAGGAGGAGGUUAAUCGAUUUUUCGGCGGAUGCCUCCAAA	< 1e-05			
AUAAAUGCGCGAGAACUACAGAAAUGUAGGAGACGAGGAGGUGGUUUAUCGAAUUUUCGGCGGAUGCCUCCAAA	< 1e-05	< 1e-05	< 1e-05	
AUAAAGGCGCCAGAACUACAGAAAUGUAGUUGACGAGGAGGAGGUUUAUCGAAUUUUCGGCGGAUGCCCCCAAA	< 1e-05			2.56e-05 ± 1e-05
AUAAAUGCGCCAGAACUACAGAAAUGUAGUUUACGAGGAGGAGGUUUAUCGAAUUUUCGGCGGAUGCCUCCAAA	< 1e-05	< 1e-05	< 1e-05	
AUAAAAACGCAAGAACUACAGAAAUGUAGUUGACGAGGAGGAGGUUUAUCGUAUUUUCGGCGGAUGCCUACAAA	< 1e-05	< 1e-05	< 1e-05	
AUAAAUGCGCCAGAACUACAGAAAUGUAGUUCACGAGGAGGAGGUUUAUCGAAUUUUCGGCUGAUGCCUCCAAA	< 1e-05			
AUAAAAACGCCAGAACUACAGAAAUGUAGUUGACGAUGAGGAGGUUUAUCGAAUUUUCGGCGGAUGCCUCCAAA	< 1e-05	< 1e-05	< 1e-05	< 1e-05
AUAAAUGCGCCGGAACUACAGAAAUGUAGUUGACGAGGAGGAGGUUUUUCGAAUUUUCUGCAGAUGCCUCCAAA	< 1e-05			
AUAAAUGCGCCGGAACUACAGAAAUGUAGUUGACGAGGAGGAGGUUUAUCGAAUUUUCGGCGGAUUCCUCCAAA	8.08e-05 ± 2.3e-05			
AUAAAGGCGCCAGAACUACAGAAAUGUAGUUGACGAGGAGGAGAUUUAUCGAAUUUUCGGCGGAUGCCUCAAAA	< 1e-05	< 1e-05	< 1e-05	< 1e-05

— the supplement of paper PMC7125110
